B1: Kinase D-interacting substrate of 220 kDa (Rattus norvegicus (Rat)), Q9EQG6 (parent)
chain: MSVLISQSVINYVEEENIPALKALLEKCKDVDERNECGQTPLMLAAEQGNVEIVKELLKNGANCNLEDLDNWTALISASKEGHIHIVEELLKSGASLEHRDMGGWTALMWACYKGRTDVVELLLSHGANPSVTGLYSVYPIIWAAGRGHADIVHLLLQNGAKVNCSDKYGTTPLVWAARKGHLECVKHLLAMGADVDQEGANSMTALIVAVKGGYTQSVKEILKRNPNVNLTDKDGNTALMIASKEGHIEIVQDLLDAGTYVNIPDRSGDTVLIGAVRGGHVEIVRALLQKYADIDIRGQDNKTALYWAVEKGNATMVRDILQCNPDTEICTKDGETPLIKATKMRNIEVVELLLDKGAKVSAVDKKGDTPLHVAIRGRSRRLAELLLRNPKDGRLLYRPNKAGETPYNIDCSHQKSILTQIFGARHLSPTETDGDMLGYDLYSSALADILSEPTMQPPICVGLYAQWGSGKSFLLKKLEDEMKTFAGQQTEPLFQFSWLIVFLTLLLCGGLGLVFAFTVDTNLAIAISLSFLALIYIFFIVIYFGGRREGESWNWAWALSTRLARHIGYLELLFKLMFVNPPELPEQTTKALPVRFLFTDYNRLSSVGGETSLAEMIATLSDACEREFGFLATRLFRVFRTEESQGKKKWKKTCCLPSFVIFLFIVGCIIAGITLLAIFRVDPKHLTVNAILISIASVVGLAFVLNCRTWWQVLDSLLNSQRKRLHSAASKLHKLKSEGFMKVLKCEVELMARMAKTIDSFTQNQTRLVVIIDGLDACEQDKVLQMLDTVRVLFSKGPFIAIFASDPHIIIKAINQNLNSVLRDSNINGHDYMRNIVHLPVFLNSRGLSNARKFLVTSATNGDITCSDTTGTQEDTDRRVSQNSLGEMTKLGSKTALNRRDTYRRRQMQRTITRQMSFDLTKLLVTEDWFSDISPQTMRRLLNIVSVTGRLLRANQITFNWDRLASWINLTEQWPYRTSWLILYLEETEGLPDQMTLKTIYERISKNIPTTKDVEPLLEIDGDIRNFEVFLSSRTPVLVARDVKTFLPCTVNLDPKLREIIADVRAAREQINIGGLAYPPLPLHEGPPRPPSGYSQPASVCSSASFNGPFPGGVVSPQPHSSYYSGLSGPQHPFYNRPFFAPYLYTPRYYPGGSQHLISRSSVKTSLPRDQNNGLPCDSGFNKQRQAAVPATGSSLLLSSMTVDVVCEKLRQIEGLDQSMMPQYCTTIKKANINGRVLSQCNIDELKKEMAMNFGDWHLFRSMVLEMRSVESQVVPEDPRFLNENSSAPVPHGESARRSSHTELPLTELSSQTPYTLNFSFEELNTLGLDEGAPRHSNLSWQSQTRRTPSLSSLNSQDSSIEISKLTDKVQAEYRDAYREYIAQMSQLEGGTGSSTISGRSSPHSTYYIGQSSSGGSIHSTLEQERGKEGELKQEDGRKSFLMKRGDVIDYSSSGVSTNEASPLDPITEEDEKSDQSGSKLLPGKKSSERPSLFQTDLKLKGGGLRYQKLPSDEDESGTEESDNTPLLKDDKDKKAEGKAERVCKSPEHSAEPIRTFIKAKEYLSDALLDKKDSSDSGVRSNESSPNHSLHNEAADDSQLEKANLIELEDEGHSGKRGMPHSLSGLQDPIIARMSICSEDKKSPSECSLIASSPEESWPACQKAYNLNRTPSTVTLNNNTAPTNRANQNFDEIEGIRETSQVILRPGPSPNPTAVQNENLKSMAHKRSQRSSYTRLSKDASELHAASSESTGFGEERESIL
B2: Crk-like protein (Rattus norvegicus (Rat)), Q5U2U2 (parent)
chain: MSSARFDSSDRSAWYMGPVSRQEAQTRLQGQRHGMFLVRDSSTCPGDYVLSVSENSRVSHYIINSLPNRRFKIGDQEFDHLPALLEFYKIHYLDTTTLIEPAPRYPNPPMGSVSAPNLSTAEENLEYVRTLYDFPGNDAEDLPFKKGELLVIIEKPEEQWWSARNKDGRVGMIPVPYVEKLVRSSPHGKHGNRNSNSYGIPEPAHAYAQPQTTTPLPTVASTPGAAINPLPSTQNGPVFAKAIQKRVPCAYDKTALALEVGDIVKVTRMNINGQWEGEVNGRKGLFPFTHVKIFDPQNPDDNE

Variants of: B1
Settings: with crkl_human CRKL

effect of a mutation on the interaction	Variant
decreasing interaction	Y1095F

Variants of: B1
Settings: with crkl_rat Crkl, Q5U2U2

effect of a mutation on the interaction	Variant
decreasing interaction	Y1095F

Variants of: B2
Settings: with kdis_rat Kidins220, Q9EQG6

effect of a mutation on the interaction	Variant
decreasing interaction	R39N
